Measured values from US9803013B2, “Biological materials and uses thereof” (BioInvent International AB, priority 2005, dated 2017).
Like-named read-outs stand apart in the source and are kept apart here.

Experiments:
[1] = system: PBMC; experiment: PBMC cytokine release; type: cell-based, human; details: immobilized (air-dried or wet coated) or in solution
Method: (FIG. 23D) Antibody-induced PBMC cytokine release. PBMC cytokine release was measured by ELISA of cell culture supernatants for IL-1β, IL-2, IL-6, IL-8, IFN-γ and TNF-α following incubation of cells in plates coated with hyper cross-linked (air-dried “A” or wet coated “W”) BI-505, isotype control, or positive control Okt-3 antibody.
(FIG. 23E) Antibody-induced cytokine release in LPS-primed PBMC. PBMC were incubated with titrated LPS and concentrations yielding submaximal cellular release of IL-1β. (100 pg/ml), IL-6 (10 pg/ml), IL-8 (10 pg/ml), and TNF-α (10 pg/ml) were determined (arrows, left panel), and used in subsequent experiments assessing antibody (BI-505 or ctrl IgG) effects on cytokine release from LPS-primed PBMC (right panel). Treatment with 100 ng/ml LPS served as positive control for robust cytokine release.
Cytokine release and T cell proliferation are thought to be common causes of mild and severe adverse reactions to antibody therapy. In order to further investigate any undesirable effects of BI-505 on ICAM-1 expressing immune cells, we therefore assessed putative effects of BI-505 on peripheral blood mononuclear cell (PBMC) cytokine release and T cell proliferation. […]
For cell culture cytokine quantifications, cells were seeded in 96-well cell culture wet and air-dried coated plates at a density of 1×10^6 cells/mL and cultured with antibodies for 24 hr. […]

[2] = system: ARH-77 tumors; experiment: SCID/ARH-77 subcutaneous xenograft model
Method: For subcutaneous grafting, 1-5×10^6 tumor cells (RPMI-8226, NCI-H929, EJM, OPM-2, ARH-77, or Daudi) were subcutaneously injected at a volume of 100 μl into the left flank of anesthetized mice as described in the Supplemental Information. […] Treatment with saline, isotype control IgG, bortezomib, lenalidomide, dexamethasone, or BI-505 started on day 5 (RPMI-8226). Treatment with melphalan started on day 10. BI-505 or isotype IgG mAb was administered i.v. at 2 mg/kg/inj twice weekly for 8 weeks; bortezomib at 1 mg/kg/inj once weekly for 8 weeks; lenalidomide orally at 2 mg/kg/inj for 2 cycles consisting of 5 days of treatment and 2 days of wash out; melphalan i.v. at 3 mg/kg/inj once weekly for 8 weeks; and dexamethasone at 6 mg/kg/inj three times weekly for 2 weeks.
Mice were anaesthetized with a mixture of sevofluran and oxygen prior to myeloma cell inoculation and 1-10×10^6 myeloma cells were then subcutaneously injected in a volume of 100 μl into the left flank. Treatment with antibodies by intraperitoneal injection started either 1 day after cell inoculation (prophylactic model) or when tumors reached approximately 100 mm^3 (established model). Antibodies were administered in 200 μL of PBS. Treatment with PBS only or isotype IgG were used as controls. Macrophages or NK-cells were depleted by i.p. administration of 0.1 ml clodronate liposomes (Clophosome-A, FormuMax, Scientific Inc. Palo Alto, USA) or 20 μl anti-asialo GM1 pCI Ab (CL8955, Cedarlane Laboratories Limited, Canada) respectively, starting one day prior to antibody treatment, followed by administration twice weekly for a total of three weeks, PBS was used as control.
Tumor size was measured using a digital calliper and tumor volumes were calculated according to the formula width^2×length×0.52, as previously described (Cao et al., 1999).
Statistical analyses of tumor growth inhibition relative to control antibody treatment were carried out using Kruskal-Wallis nonparametric ANOVA with Dunn's multiple comparisons test or Mann-Whitney non-parametric analysis, as indicated in the figure legends.

[3] = system: mouse, rat, rabbit, and cynomolgus monkey ICAM-1; experiment: BI-505 cross-reactivity to ICAM-1 of animal species used for toxicological studies; type: binding; details: animals commonly used for toxicological evaluation
Text: The cross reactivity of BI-505 to mouse, rat, rabbit, and cynomolgus monkey ICAM-1 was investigated using several methods (i.e. immunohistochemistry, flow cytometry, and enzyme-linked immunosorbent assay [ELISA]) and sources of target protein (tissue, ICAM-1 transfected cells, endogenous ICAM-1 expressing cells, and recombinant ICAM-1 protein). Polyclonal anti-mouse ICAM-1, anti-rat ICAM-1, anti-rabbit ICAM-1, and anti-cynomolgus ICAM-1 antibodies were used as positive controls in experiments. Isotype control human IgG1 was used as negative control for BI-505 and species matched polyclonal IgG lacking specificity for ICAM-1 served as negative controls for ICAM-1 specific polyclonal antibodies.

[4] = system: human peripheral blood B cells; experiment: Direct cytotoxic effects (PCD, ADCC, CDC) on normal cells; type: cell-based; details: antibody cross-linked or not
Method: All experiments were performed in triplicate.
Target cells were harvested as described above (under ADCC heading) and incubated with antibodies at 5 μg/mL for 60 min on ice and then washed. Human serum, normal or heat-inactivated (Sigma, Sweden), was added to tubes and the samples were incubated for 2 hr at 37° C. After completion of incubation, ToPo-Pro-3 (Invitrogen) was added at a final concentration of 0.3 μM and cells were analyzed for membrane permeabilization using flow cytometry.

[5] = molecular target: T1, ICAM-3 (Homo sapiens, UniProt P32942); experiment: Binding to recombinant ICAM family protein
T1 sequence (P32942 30-547): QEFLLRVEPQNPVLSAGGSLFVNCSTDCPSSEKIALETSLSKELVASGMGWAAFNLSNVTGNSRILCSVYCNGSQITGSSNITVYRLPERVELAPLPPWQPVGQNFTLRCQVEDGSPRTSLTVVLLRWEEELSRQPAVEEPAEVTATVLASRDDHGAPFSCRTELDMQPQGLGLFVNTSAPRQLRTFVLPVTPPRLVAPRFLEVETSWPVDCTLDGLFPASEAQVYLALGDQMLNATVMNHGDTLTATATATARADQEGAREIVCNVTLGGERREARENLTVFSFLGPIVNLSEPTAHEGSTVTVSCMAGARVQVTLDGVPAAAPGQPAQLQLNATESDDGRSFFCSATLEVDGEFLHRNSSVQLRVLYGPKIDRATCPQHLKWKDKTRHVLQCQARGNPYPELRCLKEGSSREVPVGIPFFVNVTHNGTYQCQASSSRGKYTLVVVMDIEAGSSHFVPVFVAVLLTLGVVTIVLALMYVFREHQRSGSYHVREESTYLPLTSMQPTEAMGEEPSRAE

[6] = molecular target: T2, ICAM-2 (Homo sapiens, UniProt P13598); experiment: Binding to recombinant ICAM family protein
T2 sequence (P13598 25-275): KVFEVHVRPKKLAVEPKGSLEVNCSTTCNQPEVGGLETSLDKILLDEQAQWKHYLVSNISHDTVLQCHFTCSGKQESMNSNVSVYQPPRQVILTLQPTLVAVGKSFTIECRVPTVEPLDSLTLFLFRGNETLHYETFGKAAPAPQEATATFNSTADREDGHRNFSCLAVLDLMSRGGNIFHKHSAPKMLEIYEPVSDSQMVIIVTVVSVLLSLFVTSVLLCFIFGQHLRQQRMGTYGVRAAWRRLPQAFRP

[7] = mouse
Method: Blood samples collected from the vena cava were centrifuged at 2500 g for 15 min to obtain serum and the samples were stored at −20° C.
Sera were prepared from blood samples collected from the vena saphena from 3 animals in each group at different time-points during the course of in vivo experimentation. Briefly, ELISA plates were coated over night with human ICAM-1 protein. The following day, plates were incubated with the serum samples. Biotinylated goat-anti-BI-505 was used for detection of BI-505 in the serum samples. Sera were analysed by ELISA to determine BI-505 trough levels. Trough BI-505 serum concentrations were then plotted as a function of dose and were fitted using five parameter log-log curve and XLfit software (IDBS, Guildford, United Kingdom).

[8] = tumors established for 12 days before start of antibody treatment

B1: B11: fully human IgG1 antibody specific for ICAM-1; VH and VL sequences of FIG. 10 (SEQ ID NOs. 6 and 8) (antibody, listed as Homo sapiens, V domains shown)
VH: EVQLLESGGGLVQPGGSLRLSCAASGFTFSNAWMSWVRQAPGKGLEWVAFIWYDGSNKYYADSVKGRFTISRDNSKNTLYLQMNSLRAEDTAVYYCARYSGWYFDYWGQGTLVTVSS
VL: QSVLTQPPSASGTPGQRVTISCTGSSSNIGAGYDVHWYQQLPGTAPKLLIYDNNNRPSGVPDRFSGSKSGTSASLAISGLRSEDEADYYCQSYDSSLSAWLFGGGTKLTVLG
[1]
  PBMC cytokine release: did not, however, induce PBMC cytokine release
[2]; dose-titration, dose of 0.2 mg/kg
  antitumor activity: near maximal
[2]; established ARH-77 tumors
  in vivo antitumor activity of Fc-variants, order: IgG1 N297Q<IgG4<IgG1
[2]; established ARH-77 tumors, F4/80+ immunohistochemistry
  tumor macrophage infiltration: significantly increased tumor macrophage infiltration
[2]; established ARH-77 tumors, immunohistochemistry
  tumor NK cell content: decreased tumor NK cell content
[2]; prophylactic, 0.2 mg/kg, compared to 20 mg/kg rituximab
  survival: equally efficacious
[2]; prophylactic, 20 mg/kg twice-weekly from 1 day after tumor cell inoculation
  injected mice in which tumor growth was prevented: 9 out of 10
[2]; [8]
  animal survival: prolonged animal survival
  tumor growth: significantly reduced tumor growth
[3]
  cross-reactivity with animal ICAM-1: does not, however, cross-react
[4]
  cell death in normal cells: did not induce cell death
[5]
  binding to recombinant protein: not to ICAM-2 or ICAM-3
[6]
  binding to recombinant protein: not to ICAM-2 or ICAM-3
[7]; 0.02 mg/kg
  In vivo serum concentrations: 0.06 ± 0.02 µg/mL
[7]; 0.2 mg/kg
  In vivo serum concentrations: 1.2 ± 0.4 µg/mL
[7]; 2 mg/kg
  In vivo serum concentrations: 20 ± 2.9 µg/mL
